Results taken from PMC5727412.

Molecular target: AcrE1 with a C-terminal 6×His tag (Pseudomonas phage JBD5)
Assay: SEC; purified AcrE1 CHis; single peak; elution volume compared with a standard curve to estimate the native molecular mass

AcrE1 with a C-terminal 6×His tag (natural protein)
stoichiometry N: 2
